The target in one test is T1, P6mS.
T1 chain: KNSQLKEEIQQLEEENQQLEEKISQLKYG
Briefly: two-hybrid library CC1.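 Note: natural log of median RNA to DNA barcode read ratio; higher means stronger binding.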 The settings on record: mean of both orientations.

The next test concerns the target T2, P5SC1.
T2 chain: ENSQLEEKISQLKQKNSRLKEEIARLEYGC
Briefly: two-hybrid library CC1.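 Note: natural log of median RNA to DNA barcode read ratio; higher means stronger binding.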

A further test concerns the target T3, P9.
T3 chain: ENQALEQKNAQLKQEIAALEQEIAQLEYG
Briefly: two-hybrid library CC1.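 Note: natural log of median RNA to DNA barcode read ratio; higher means stronger binding.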 The settings on record: mean of both orientations.

A further test has as its target T4, P8mS.
T4 chain: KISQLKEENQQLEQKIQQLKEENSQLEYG
The test can be described thus: two-hybrid library CC1.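 Note: natural log of median RNA to DNA barcode read ratio; higher means stronger binding.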 The settings on record: mean of both orientations.

Another test has as its target T5, P6SC1.
T5 chain: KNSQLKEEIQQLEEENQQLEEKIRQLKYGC
The test can be described thus: two-hybrid library CC1.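 Note: natural log of median RNA to DNA barcode read ratio; higher means stronger binding.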 The settings on record: mean of both orientations.

The target of a further test is T6, P6.
T6 chain: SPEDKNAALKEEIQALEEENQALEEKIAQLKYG
The test can be described thus: two-hybrid library CC1.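 Note: natural log of median RNA to DNA barcode read ratio; higher means stronger binding.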 The settings on record: mean of both orientations.

Another test deals with T7, P7.
T7 chain: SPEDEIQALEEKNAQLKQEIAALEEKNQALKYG
Briefly: two-hybrid library CC1. The settings on record: mean of both orientations.

A further test has as its target T8, P6SC2.
T8 chain: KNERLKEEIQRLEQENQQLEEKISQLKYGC
The test can be described thus: two-hybrid library CC1. The settings on record: mean of both orientations.

The next test deals with T9, P5mS.
T9 chain: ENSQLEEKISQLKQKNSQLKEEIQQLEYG
Briefly: two-hybrid library CC1. The note with it: mean of both orientations.

The target in a further test is T10, P5SC2.
T10 chain: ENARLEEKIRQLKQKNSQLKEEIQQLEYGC
Briefly: two-hybrid library CC1. The settings on record: mean of both orientations.

In another test the target is T11, P7mS.
T11 chain: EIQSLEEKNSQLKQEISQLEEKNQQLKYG
The test can be described thus: two-hybrid library CC1. The settings on record: mean of both orientations.

For a further test, the target named is T12, P8.
T12 chain: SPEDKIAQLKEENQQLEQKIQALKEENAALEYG
Briefly: two-hybrid library CC1. The note with it: mean of both orientations.

Another test has as its target T13, 4H496-bN.
T13 chain: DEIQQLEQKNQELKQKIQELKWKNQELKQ
The test can be described thus: two-hybrid library CCNG1.

Another test has as its target T14, 4H993-AA.
T14 chain: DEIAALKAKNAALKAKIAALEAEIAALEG
The test can be described thus: two-hybrid library CCmax. The settings on record: mean of both orientations.

The next test has as its target T15, 4H717-AA.
T15 chain: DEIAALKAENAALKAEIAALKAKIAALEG
Briefly: two-hybrid library CCmax. The settings on record: mean of both orientations.

A further test deals with T16, 4H566-AA.
T16 chain: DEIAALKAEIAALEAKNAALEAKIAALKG
The test can be described thus: two-hybrid library CCmax. The note with it: mean of both orientations.

In a further test the target is T17, 4H48-AA.
T17 chain: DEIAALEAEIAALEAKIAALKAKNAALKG
Briefly: two-hybrid library CCmax. The settings on record: mean of both orientations.

Another test addresses T18, 4H454-AA.
T18 chain: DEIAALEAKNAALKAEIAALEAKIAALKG
The test can be described thus: two-hybrid library CCmax. The settings on record: mean of both orientations.

The next test addresses T19, 4H883-AA.
T19 chain: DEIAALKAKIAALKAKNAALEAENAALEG
The test can be described thus: two-hybrid library CCmax. The settings on record: mean of both orientations.

The target of the next test is T20, 4H780-AA.
T20 chain: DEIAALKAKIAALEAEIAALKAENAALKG
Briefly: two-hybrid library CCmax. The note with it: mean of both orientations.

The target in a further test is T21, 4H953-AA.
T21 chain: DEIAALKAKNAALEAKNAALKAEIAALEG
Briefly: two-hybrid library CCmax. The note with it: mean of both orientations.

Another test addresses T22, 4H678-AA.
T22 chain: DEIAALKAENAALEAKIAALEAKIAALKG
The test can be described thus: two-hybrid library CCmax. The settings on record: mean of both orientations.

In the next test the target is T23, 4H797-AA.
T23 chain: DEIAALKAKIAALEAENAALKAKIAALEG
Briefly: two-hybrid library CCmax. The note with it: mean of both orientations.

Another test addresses T24, 4H3427-AA.
T24 chain: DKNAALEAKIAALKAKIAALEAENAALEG
The test can be described thus: two-hybrid library CCmax.

The next test addresses T25, 4H3921-AA.
T25 chain: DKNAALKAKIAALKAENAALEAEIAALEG
Briefly: two-hybrid library CCmax. The settings on record: mean of both orientations.

Another test deals with T26, 4H881-AA.
T26 chain: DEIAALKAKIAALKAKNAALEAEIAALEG
Briefly: two-hybrid library CCmax. The note with it: mean of both orientations.

A further test addresses T27, 4H3782-AA.
T27 chain: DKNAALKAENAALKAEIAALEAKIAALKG
Briefly: two-hybrid library CCmax. The note with it: mean of both orientations.

The next test has as its target T28, 4H605-AA.
T28 chain: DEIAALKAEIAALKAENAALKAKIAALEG
The test can be described thus: two-hybrid library CCmax. The note with it: mean of both orientations.

The next test addresses T29, 4H687-AA.
T29 chain: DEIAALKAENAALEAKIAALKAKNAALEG
Briefly: two-hybrid library CCmax. The settings on record: mean of both orientations.

The target in another test is T30, 4H918-AA.
T30 chain: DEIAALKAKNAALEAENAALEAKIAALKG
The test can be described thus: two-hybrid library CCmax.

The target of the next test is T31, 4H3844-AA.
T31 chain: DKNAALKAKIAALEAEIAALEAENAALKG
The test can be described thus: two-hybrid library CCmax. The settings on record: mean of both orientations.

A further test addresses T32, 4H4001-AA.
T32 chain: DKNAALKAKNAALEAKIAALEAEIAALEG
The test can be described thus: two-hybrid library CCmax. The note with it: mean of both orientations.

For the next test, the target named is T33, 4H3655-AA.
T33 chain: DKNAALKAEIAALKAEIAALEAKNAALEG
The test can be described thus: two-hybrid library CCmax. The note with it: mean of both orientations.

For the next test, the target named is T34, 4H3855-AA.
T34 chain: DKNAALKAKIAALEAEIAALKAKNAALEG
Briefly: two-hybrid library CCmax. The settings on record: mean of both orientations.

In another test the target is T35, 4H3627-AA.
T35 chain: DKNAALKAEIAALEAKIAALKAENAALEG
Briefly: two-hybrid library CCmax. The settings on record: mean of both orientations.

The target in a further test is T36, 4H794-AA.
T36 chain: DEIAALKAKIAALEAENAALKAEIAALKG
Briefly: two-hybrid library CCmax. The note with it: mean of both orientations.

For the next test, the target named is T37, 4H906-AA.
T37 chain: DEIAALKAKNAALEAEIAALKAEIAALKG
Briefly: two-hybrid library CCmax. The note with it: mean of both orientations.

For a further test, the target named is T38, 4H429-AA.
T38 chain: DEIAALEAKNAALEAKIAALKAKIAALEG
Briefly: two-hybrid library CCmax. The note with it: mean of both orientations.

The next test addresses T39, 4H967-AA.
T39 chain: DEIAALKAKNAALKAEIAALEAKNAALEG
Briefly: two-hybrid library CCmax. The note with it: mean of both orientations.

For the next test, the target named is T40, 4H568-AA.
T40 chain: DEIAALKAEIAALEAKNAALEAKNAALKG
Briefly: two-hybrid library CCmax. The note with it: mean of both orientations.

The next test deals with T41, 4H3606-AA.
T41 chain: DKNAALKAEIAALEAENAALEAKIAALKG
The test can be described thus: two-hybrid library CCmax. The settings on record: mean of both orientations.

Turning to ENSQLEEKISQLKQKNSRLKEEIARLEYGC [P5SC1], the interaction score with P6mS was 0.307; in the test with P5SC1, -2.92; in the test with P9, -2.33; with P8mS, -2.29; with P6SC1, 0.372; with P6, 0.357. In addition, the interaction score with P7 is -2.4; with P6SC2, 0.373; in the test with P5mS, -2.78; in the test with P5SC2, -2.82; with P7mS, -2.67; in the test with P8, -0.893.

With DEIQQLEQKNQELKQKIQELKWKNQELKQ [4H496-bN], the interaction score with 4H496-bN was -0.0824.

For the molecule DKNAALEAKIAALKAKIAALEAENAALEG [4H3427-AA], the interaction score was -1.24 in the test with 4H993-AA; -1.29 with 4H717-AA; -1.35 in the test with 4H566-AA; 1.18 with 4H48-AA; -0.567 with 4H454-AA; -1.7 with 4H883-AA. Moreover, the interaction score is -1.61 in the test with 4H780-AA; -1.66 with 4H953-AA; -1.47 with 4H678-AA; -1.46 with 4H797-AA; -0.802 in the test with 4H3427-AA; -1.79 with 4H3921-AA. In addition, the interaction score was -1.68 in the test with 4H881-AA; -0.991 with 4H3782-AA; -1.66 with 4H605-AA; -1.62 with 4H687-AA; -1.2 with 4H918-AA; 0.482 in the test with 4H3844-AA. Besides, the interaction score was -1.06 with 4H4001-AA; 0.589 with 4H3655-AA; -1.01 in the test with 4H3855-AA; -0.773 with 4H3627-AA; -1.26 in the test with 4H794-AA; -1.69 with 4H906-AA. Also, the interaction score in the test with 4H429-AA is -1.37; in the test with 4H967-AA, -1.59; in the test with 4H568-AA, -0.257; with 4H3606-AA, -0.74.

The values above are taken from article PMC10397247.
